Data from US20060084097.

T1: CysO3H-peptide
T1 chain: CHGSGAWL

T2: 8-residue Cys-peptide (CHGSGAWL)
T2 chain: CHGSGAWL

T3: 8-residue Asp-peptide (DHGSGAWL)
T3 chain: CHSGAWL

B1: mouse ATE1-1 R-transferase C-terminally tagged with the polyoma and His6 epitopes (protein)
chain: MASWSAPSPSLVEYFEGQTSFQCGYCKNKLGSRSYGMWAHSMTVQDYQDLIDRGWRRSGKYVYKPVMDQTCCPQYTIRCHPLQFQPSKSHKKVLKKMLKFLAKGEISKGNCEDEPMDSTVEDAVDGDFALINKLDIKCDLKTLSDLKGSIESEEKEKEKSIKKEGSKEFIHPQSIEEKLGSGEPSHPIKVHIGPKPGKGADLSKPPCRKAREMRKERQRLKRMQQASAAASEAQGQPVCLLPKAKSNQPKSLEDLIFQSLPENASHKLEVRVVRSSPPSPQFRATFQESYQVYKRYQMVVHKDPPDKPTVSQFTRFLCSSPLEAEHPADGPECGYGSFHQQYWLDGKIIAVGVLDILPYCVSSVYLYYDPDYSFLSLGVYSALREIAFTRQLHEKTSQLSYYYMGFYIHSCPKMRYKGQYRPSDLLCPETYVWVPIEQCLPSLDNSKYCRFNQDPEAEDEGRSKELDRLRVFHRRSAMPYGVYKNHQEDPSEEAGVLEYANLVGQKCSERMLLFRHHHHHHH
B2: S. cerevisiae ATE1 Arg-tRNA-protein transferase C-terminally tagged with His6 (protein)
chain: MSDRFVIWAPSMHNEPAAKCGYCHGNKGGNMDQLFALDSWAHRYMNKMDVVKIENCTIGSFVEHMDVATYDRMCNMGFRRSGKFLYKVDPLRNCCRLYTIRTAPQELNMTKELKKCISRFATRITSEDYCPAAVASSDFVGKIVNAEMNSKTFYTRFEPALYSEEKYHLFVKYQEKVHQDYNNSPKSFKRFLCDTPFGPEAVLGTQESWEQLNNWQRMKPGEKLKHMGPVHECYYYEGKLIAITVSDILPSGISSVYFIWDPDYSKWSLGKLSALRDLAIIQRTNLQYYYLGYYIEDCPKMNYKANYGAEVLDVCHSKYIPLKPIQDMISRGKLFVIGEEETKVTKELYLVDSETGRGEGFPTDNVVKYKNIAEEIYGVGGCAFKSANESALELKELYGIPYEEEDLDTIYHLKEHNGHAPNGIPNVVPGLLPLWELLDIMQSGKITDLEGRLFLFEIETEGIRPLINFYSEPPNVKKRICDVIRLFGFETCMKAVILYSEQMHHHHHH

What was measured:
[1] = molecular target: Val-RGS4 (X-RGS4-flag, X=Val)
[2] = molecular target: Asp-RGS4 (X-RGS4-flag, X=Asp)
[3] = molecular target: T1, CysO3H-peptide
[4] = molecular target: T2, 8-residue Cys-peptide (CHGSGAWL)
[5] = molecular target: Cys-RGS4 (X-RGS4-flag, X=Cys)
[6] = molecular target: T3, 8-residue Asp-peptide (DHGSGAWL)

Protein	3H-arginine conjugation (SDS-PAGE and fluorography) [1]	3H-arginine conjugation (SDS-PAGE and fluorography) [2]	arginylation of peptide (capillary electrophoresis, MALDI-TOF MS), pH 7.5 [3]	arginylation of peptide (capillary electrophoresis), pH 9.0 [4]	arginylation of peptide (capillary electrophoresis, MALDI-TOF MS), pH 7.5 [4]	3H-arginine conjugation (SDS-PAGE and fluorography) [5]	arginylation of peptide (capillary electrophoresis, MALDI-TOF MS), pH 7.5 [6]	arginylation of peptide (capillary electrophoresis) [3]	arginylation of peptide (capillary electrophoresis) [4]	arginylation of peptide (capillary electrophoresis) [6]
B1	Val-RGS4 was not arginylated	Asp-RGS4 was efficiently arginylated irrespective of NO pretreatment	the Asp-peptide and the CysO3H-peptide were efficiently arginylated	arginylation of Cys-peptide was undetectable even at pH 9.0, in contrast to arginylation of CysO3H-peptide and Asp-peptide	the Cys-peptide was not arginylated	a virtually complete dependence of the in vitro arginylation of Cys-RGS4 on its prior exposure to a donor of NO	the Asp-peptide and the CysO3H-peptide were efficiently arginylated	–	–	–
B2	–	–	–	–	–	–	–	Yeast R-transferase efficiently arginylated CysO3H-peptide, but not Cys-peptide	Yeast R-transferase efficiently arginylated CysO3H-peptide, but not Cys-peptide	The same results were obtained when mouse ATE1-1 was replaced, in the above assays, with purified S. cerevisiae ATE1 R-transferase
